Assay results as given in the RNAGym collection of RNA variant scans (doi:10.7554/elife.80360).

B1: HDV Ribozyme (parent)
chain: GGCCGGCAUGGUCCCAGCCUCCUCGCUGGCGCCGGCUGGGCAACAUUCCGAGGGGACCGUCCCCUCGGUAAUGGCGAAUGGGACCCA

Variants of: B1
Experiment: self-cleavage, relative activity (ratio to wild type); higher = more cleavage; co-transcriptional

Variant | self-cleavage
C75G G81C | 0.0831
C75U A78G | 0.214
C75U A78U | 0.264
A78G G82U | 0.295
A78G G82C | 0.0519
G76C C86G | 0.971
G76C C86A | 0.854
C75U C84G | 0.136
C75U C84A | 0.237
G76A C84A | 0.958
A77C U79A | 0.297
A77C U79C | 0.138
A77C U79G | 0.151
U79A G82A | 0.227
C75A C84G | 0.0707
G73U C84G | 0.329
G73U C84A | 0.158
G76A G82U | 0.601
G76A G82A | 0.35
G76A G82C | 0.214
G76A C85A | 0.904

Variant | self-cleavage
G76A C85G | 0.962
G73U | 0.382
G73A | 0.691
G73C | 0.505
C75G U79G | 0.0791
C75G U79A | 0.123
G73C G81U | 0.259
G73A A78C | 0.265
C75U G76A | 0.0852
C75U G76C | 0.271
C75G G80U | 0.104
C75G G80A | 0.11
G76U A77C | 0.295
A78C A83C | 0.151
A77G A78U | 0.266
A77G A78C | 0.172
A77G A78G | 0.277
A77U A87U | 0.785
C75U A83C | 0.128
C75U A83U | 0.199
G76A U79A | 0.831

Variant | self-cleavage
G73C A78C | 0.0773
G73C A78U | 0.155
G74A G76C | 0.464
A78G G80A | 0.242
A77C C85U | 0.192
A78C G82A | 0.106
A78C G82U | 0.212
G74U A77G | 0.312
G76U C86G | 1.09
G76U C86A | 0.615
U79A A87U | 0.98
U79A A87C | 0.849
G74A C86U | 0.604
A78U A87G | 0.226
A78U A87C | 0.31
U79A C86A | 0.688
U79A C84A | 0.539
U79A C84U | 0.314
G74A C84U | 0.446
A77G A83U | 0.635
A77G A83C | 0.208

Variant | self-cleavage
G73A G74U | 0.174
G73A G74A | 0.248
G73A G74C | 0.176
A78G A87U | 0.862
A78G A87C | 0.452
G76C G82U | 0.326
G76U G81C | 0.628
G76U G81U | 0.462
G76U C84U | 1.11
G76U C84A | 0.906
G76U C84G | 1.05
C75G G76U | 0.237
C75G G76A | 0.196
G76C A78G | 0.944
G76C A78C | 0.192
A77G C84U | 0.631
C75U C86A | 0.111
C75A A87U | 0.111
G73C C75G | 0.0573
G73C C75A | 0.173
G76A G80U | 0.441
